B1: TPR t1 (parent)
chain: GACCAAUCUGCCCUCAGAGCUCGAGAACAUCUUCGGAUGCAGAGGAGGCAGGCUUCGGUGGCGCGAUAGCGCCAACGUCCUCAACCUCCAAUGCAUCCCACCACAUGAUGAUGCCUGAAGAGCCUUGGUUUUUUG

Variants of: B1
Test: polymerase ribozyme fitness, log enrichment relative to wild type (log ratio); higher = more active; in vitro selection for triplet polymerase activity
Procedure, shortened: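 Fitness compares each genotype's enrichment to that of the wild type on a logarithmic scale, averaging replicates with inverse-variance weights. The logarithm is base 2. Enrichment came from Illumina sequencing of input and output libraries after one triplicate round of in vitro selection, which included frozen incubation at −7 °C, of PCR-built, transcribed mutant libraries of each subunit of a heterodimeric triplet polymerase ribozyme. Only genotypes with ≥10 input reads and ≥1 read per output were kept.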

| Variant | polymerase ribozyme fitness (log ratio) |
| --- | --- |
| GACCAAUCUGCCGUAAGAGCUCGAGAACAUCUUCGGAUGCAGAGGAGGCAGGCUUCGGUGGCGCGAUAGCGCCAACGUCCUCAACCUCCAAUGCAUCCCACCACAUGAUGAUGCCUGAAGAGCCUUGGUUUUUUG [C13G C15A] | -2.5 |
| GACCGAUCCGCCCUCAGAGCUCGAGAACAUCUUCGGAUGUAGAGGAGGCAGGCUUUGGAGGCGCGAUAGCGCCAACGUCCUCAACCUCCAAUGCAUCCCACCACAUGAUGAUGCCUGAAGAGCCUUGGUUUUUUG [A5G U9C C40U C56U U59A] | -0.739 |
| GACCAAUCUGCCCUCAGAGCUCGAGAACAUCUUCGGAUGCAGAGGCGACAAGCUUCGGUGGCGCGAUAGCGCCAACGUCCUCAACCGCCAAUGCAUCCCACCACAUGAUGAUGCCUGAAGAGACUUGGUUUUUUG [A46C G48A G51A U87G C123A] | -1.77 |
| GACCAAUCUGCUCUCAGCGCUCGAGAACAUCUUCGGAUGCAGAGGAGGCAGGCUUCGGUGGUGCGAUAGCGCCAACGUCCUCAACCUCCAAUGCAUCCCACCACAUGAUGAUGCCUGAAGAGCCUUGGUUUUUUG [C12U A18C C62U] | -2.39 |
| GACCAAUCUGCCCUCAGAGCUCGAGAACAUCUUCGGAUGCAGAGGAGGCAAGCUUCGGUGGCGCGAUAGCGCCAACGUCCUCAACCUCCAAUGCAUCCCACCACAUGAUGAUGCCUGAAGAGCUUUGGUUUUUUG [G51A C124U] | -1.14 |
| GACAAAUCUGCCCUCAGAGCUCGAGAACAUCUUCGCAUGCACAGGAGGAAGGCUUCGGUGGCGCGAUAGCGCCAACGUCCUCAACCUCCAAUGCAUCCCACCACAUGAUGAUGCCUGAAGAGCUUUGGUUUUUUG [C4A G36C G42C C49A C124U] | -4.12 |
| GACCAAUCUGCCCUCAGAGCUCGAGAACAUCUUCGGAUGCAGAGGAGGCAGGCUUCGGUGGCGCGAUAGCGCCAACGUCCUCAACCUCCAAUACAUCCCACCACAUGAUGAUGCCCGAAGAGCCUUGGUUUUUUG [G93A U116C] | -1.68 |
| GACCAAUCUGCCCUCAGAGCUCGAGAACAUCUUCGGAUACAGAGGAGGCAGGCUUCGGUGGCGCGAUAGCGCCAACGUCCUCAACCUCCGAUGCAUCCCACCACAUGAUGAUGCCUGAAGAGCCUUGGUUUUUUG [G39A A90G] | 0.17 |
| GAACAAUCUGCCCUCAGAGCUCGAGAACAUCUUCGGAUGAAGAGGAAGCAGGCUUCGGUAGCGCGAUAGCGCCAUCGUCCUCAACUUCCAAUGCAUUCCACCACAUGAUGAUGCCUGAAGAGACUUGGUUUAUUG [C3A C40A G47A G60A A75U C86U C97U C123A U132A] | -1.07 |
| GACCAAUCUGCCCUCAGAGCUCGAGAACAUCUUCGGAUGCAGAGGAGGCAGGCUUCGGUGGCGCGAUUGCGCCAACGUCCUCAACCUCCAAUGCAUCCCACCACAUGAUGAUGCCUGAAGAGCCUUGGUUUUUUG [A68U] | -7.01 |
| GACCAAUCUGCCCUCAGGGCUCGAGAACAUCUUCGGAUGCAGAGUAGGCAGGCUUCGGUGGCGCGAUAGCGCCAACGUCCUCAACCUCCAAUGCAUCCCACUACAUGACGAUGCCGGAAGAGCCUUGGUUUUUUG [A18G G45U C102U U109C U116G] | -5.64 |
| GACCAAUCUGCCCUCAGAGCUCGAGAACAUCUUCGGAUGCAGAGGAGGCAGGCUUCGGUGGCGCGAUAACGCCAACGUCCUCAACCUCCAAUGCAUCCCACCACAUGAUGAUGCCUGAAGAGCCUUGGUUAUUUG [G69A U131A] | -2.38 |
| GACCAAUCUGCCCUCAGAGCUCGAGAACAUCUUCGGAUGCAGAGGAGGCAGGCUUCGGUGACGCGAUAGCGCAAACGUCCUCAACCUCCAAUGCAUCCCACCACAUGAUGAUGCCUGGAGAGCCUUGGUUUUUUG [G61A C73A A118G] | -1.71 |
| GACCAAUCUGCCCUCAGAGCUCGAGAACAUCUUCGGAUGCAGAGGAGGCAGGCUUCGGUGGCGCGAUAGCGCCAACGUCCUCAACCUCCAAUGCAUCCCAACACAUGAUGAUGCCUGAAGAGCCUUGGUUCUUUG [C101A U131C] | -0.88 |
| GAUCAAUCUGCCCACAGAGCUCGAGAACAUCUUCGGAUGCAGAGGAGGCAGGGUUCGGUGGCGUGAUAGCGCCAACGUCCUCAACCUCCAAUGCAUCCCACCACAUGAUGAUGCCUGAAAAGCCUUGGUUUUUUG [C3U U14A C53G C64U G120A] | 0.544 |
| GACCAACCUGCCCUCAGAGCUCGAGAACAUCUUCGGAUGCAGAGGAGGCAGGCUUCGGUGGCGCGAUAGUGCCAACGUCCUCAACCUCCAAUGCAUCCCACCACAUGAUGAUGCCUGAAGAGCCUUGGUUUUUUG [U7C C70U] | -1.31 |
| GACCAAUCUGCCCUCAGAGCUCGAGAACAUCUUCGGAUGCAGAGGACGCAGGCUUCGGUGACGCGAUAGCGCCAACGUCCUCAACCACCAAAGCAUCCCACCACAUGAUGAUGCCUGAAGAGCCUUGGUUUUUUG [G47C G61A U87A U92A] | -5.03 |
| GACCAAUCUGCCCUCAGAGCUCGAGAACAUCUGCGGAUGCAGAGGAGGCAGGCUUCGGUGGCGCGAUAGCGCCAAGGUCCUCAACCUACAAUGCAUCCCACCACAUGAUGAUGCUUGAAGAGCCUUGGUUUUUUG [U33G C76G C88A C115U] | -6.6 |
| GACCAAUCUGCCCUCAGAGCUCGAGAACAUCUUCGGAUGCAGAAGAGGCAGGCUUAGGUGGCGCGAUAGCGCCAACGUCCUCAACCUCCAAUGCAUCCCACCACAUGAUGAUGCCUGAAGAGCCUUGGUUUUUUG [G44A C56A] | -1.33 |
| GACCAAUCUGCCCUCAGAGCUCGAGAACAUCUUCGGAUGCAGAGGAGGCAGGCUUCGGUGGCGCGAUAGCUCCAACGUCCUCAACCUCCAUUGCAUCCCACCACAUGAUGAUGCCUGAAGAGCCUUGGUUUCUUG [G71U A91U U132C] | -2.4 |
| GACCAAUCUGCCCUCAGAGCUCGAGAACAUCUUAGGAUGCAGUGGAGGCAGGCUUCGGUGGCGCGAUAGCGCCAACGUCCUCAACCUCCAAUGCAUCCCACCACAUGAUGAUGCCUGAAGAGCCUUGGUUUUUUG [C34A A43U] | -5.98 |

| Variant | polymerase ribozyme fitness (log ratio) |
| --- | --- |
| GACCAAUCUGCCCUCAGAGCUCGAGAACAUCUUCGGAUACAGAGGAGGCAGGCUUCGGUGGCGCGAUAGCGCCAACGUCCUCAACCUCCAAUGCAUCCCACCACAUGAUGAUGCCUGGAGUGCCUUGGUUUUUUG [G39A A118G A121U] | 1.46 |
| GACCAAACUGCCCUCAGAGCUCGAGAACAUCUUCGGAUGCAGAGGAGGCAGGCUUCGGUGGCGCGAUAGUGCCAACGUCCUCAACCUCCAAUGCAUCCCACCACAUGAUGAUGCCUGAAGAGCCUUGGUUUUUUG [U7A C70U] | -0.0171 |
| GACCAAUCUGCCCUCAGAGCUCGAGAACAUCUUCGGAUGCAAAGGAGGCAGGCUUAGGUGGCGCGAUAGCGCCAACGUCCUCAACCUCCAAUGCAUCCCACCACAUGAUGAUGCCUGAAGAGCCUUGGUUUUUUG [G42A C56A] | -1.64 |
| GACCAAUCUGCCCUCAGAGCUCGAGAACAUCUUCGGAUGCAGAGGAGGCAGGCUUCGGUGGCGCGAUAGCGCCAACGUCCUCAACCUCCAAUGCAUCCCACCACAUGAUGAUGCCUGAAAAGCAUUGGUUUUUUG [G120A C124A] | 2.09 |
| GACCAAUCUGCCAUCAGAGCUCGAGAACAUCUUCGGAUGCAGAGGAGGCAGGCUUCGGUGGCGCGAUAGCGCCAAGGUCCUCAACCUCCAAUGCAUUCCACAAUAUGAUGAUGCCUGAAGAGCCUUGGUUUUUUG [C13A C76G C97U C102A C104U] | -3.66 |
| GACCAAUCUGCCAUCAGAGCUCGAGAACAUCUUCGGAUGCUGAGGAGGCAGGCUUCUGUGGCGCGAUAGCGCCAACGUCCUCAACCUCCAAUGCAUCCCACCACAUGAUGAUGCCUGAAGAGCCUUGGUUUUUUG [C13A A41U G57U] | -3.67 |
| GACCAAUCUGCCCUCAGAGCUCGAGAACAUCUUCGGAAGCAGAGGAGGCAGGCUUCGGUGGCGCGAUAGCGCCAACGUCCUCAACCUCCAAUGCAUCCCACAACAUGAUGAUGCCUGAAGAGCCUUGGUUUUUUG [U38A C102A] | -4.22 |
| GACCAAUCUGCCCUCAGAGCUCGAGAACAUCUUAGGAUGCAGAGGAGGCAGGCUUCGGUGGCGCGAUAGCGUCAACGUCCUCAACCUCCAAUGCAUCCCACCACAUGAUUAUGCCUGAAGAGCCUUGGUUUUUUG [C34A C72U G110U] | -6.56 |
| GACCAAUCUGUCCUCAGAGCUCGAGAACAUCUUCGGAUGCAGAGGAGGCAGGAUUCGGUGGCGCGAUAGCGCCAACGUCCUCAACCUCCAAUGCAUUCCACCACAUGAUGAUGCCUGAAGAGCCUUGGUUUUUUG [C11U C53A C97U] | -1.37 |
| GACCAAUUUGCCCUCAGAGCUCGAGAACAUCUUCGGAUGCAGACGAGGCAGGCUUCGGUGGCGCGAUAGCGCCAACGUCCUCUACCUCCAAUGCAUCCCACCACAUGAUGAUGCCUGAAGAGCCUUGGUUUUUUG [C8U G44C A83U] | -0.336 |
| GACCAAUCUGCCCUCAGAGCUCGAGAACAUCUUCGGAUGCUGAGGAGGCAGGCUUCAGUGGCGCGAUAGCGCCAACGUCCUCAACCUCCAAUGCAUCCCACCACAUGAUGAUGCCUGAAGAGCCUUGGUUUUUUG [A41U G57A] | -1.97 |
| GACCAAUCUGCCCUCAGAGCUCGAGAACAUCUUCGGAUGCAGAGGAGGUAGGCUUCGGUGGCGCGAUAGCGCCAACGCCCUCAACCUCCAAUGCAUCCCACCACAUGAUGAUGCCUGAAGAGCCUUGGUUUUUUG [C49U U78C] | -1 |
| GACCAAUCUGCCCUCAGAGCCCGAGAACAUCUUCGGAUGCAGAGGAGGCAGGCUUCGGUGGCACGAUAGCGCCAACGUCCUCAACCUCCAAUGCAUCCCACCACAUGAUGAUGCCUGAAGAGCCUUGGUUUUUUG [U21C G63A] | -0.609 |
| GACAAAUCUGCCCUCAGAGCUCGAGAACAUCUUCGGAUGCAGAGGAGGCAGGCUUCGGUGGCGCGAUACCGCCAACGUCCUCAACCUCCAAUGCAUCCCACCACAUGAUGAUGCCUGAAGAGCCUUGGUUUUUUG [C4A G69C] | -3.61 |
| GACCAAUCUGCCCUCGGAGCUCGAGAACAUCUUCGGAUGCAGAGGAGGCAGGCUUCGGUGGCGCGAUAGCGCCAACGUCCUCAACCUCCAAUGCAUCCCACCACAUGAUGAUCCCUGAAGAGCCUUGGUUUUUUG [A16G G113C] | -3.85 |
| GACCAAUCUGCCCCCAGGGCUCGAGAACAUCUUCGGAUGCAGAGGAGGCAGGCUUCGGUGGCGCGAUAGCGCCAACGUCCUCAACCUCCAAUGCAUCCCACCACAUGAUGAUGCCUGAAGAGCCUUGGUUUUUUG [U14C A18G] | -4.78 |
| GACCAAGCUGCCCUCAGAGCUCGAGAACAUCUUCGGAUGCAGAGGAGGCAGGCUUCGGUGGCGCGAUAGCGCCAACGUCCUCAACCUCAAAUGCAUCCCACCACAUGAUGAUGCCAAAAGAGCCUUGGUUUUUUG [U7G C89A U116A G117A] | -2.89 |
| GACCAAUCUGCCCUCAGAGCUCGAGAACAUCUUCGGAGGCAGAGGAGGCAGGCUUCGGUGGCGCGAUAGCGCCAACGUCCUCAACCUCCAAUGCAUCCCACCACAUGAUGAUGCCUGAAGAGCCUUGGUUUUUUU [U38G G135U] | -2.04 |
| GACCAAUCUGCCCUCAGAGCUCGAGAACAUCUUAGGAUGCAGAGGAGGCAGGCUUCGGUGGCGCGAUAGCGCCAACGUCCUCAACCUCCAAUGCAUCCCACCACAUGAUGAAGCCUGAAGAGCCUUGGUUUUUUG [C34A U112A] | -1.81 |
| GACCAAUCUGCCCUCAGAGCUCGAGAACAUCUUCCGAUGCAGAGGAGGCAGGCUUCGGUGGCGCGAUAGCGUCAACGUCCUCAACCUCCAAUGCAUCCCACCACAUGAUGAUGUCUGAAGAGCCUUGGUUUUUUG [G35C C72U C114U] | -6.13 |
| GACCAAUCUGCCCUCAGAGCUCGAGAACAUCUUCGGAUGCAGAGGAGGCAGGCUUCGGUGGCGCGAUAUCGCCAACGUCCUCAACCUCCAAUGCAUCCCACCACAUGAUGAUGCCUGAAGAGCCAUGGUUUUUUG [G69U U125A] | -0.179 |

Source: the RNAGym collection of RNA variant scans (doi:10.1073/pnas.2313332121)
